The values that follow come from paper PMC5855320, “Activation of the Notch Signaling Pathway In Vivo Elicits Changes in CSL Nuclear Dynamics” (Developmental Cell, 2018).

In data set [1] the test system is Su(H) WT (Drosophila melanogaster). Kind of data set: ITC. The note with it: ITC: 50 mM sodium phosphate pH 6.5, 150 mM NaCl, 10 C; 10 uM Su(H) in cell, 100 uM DNA in syringe; one-site model.
Data set [2] concerns the target T1, Recombinant Su(H) (98-523) (Drosophila melanogaster, UniProt P28159 98-523).
T1 construct: Suppressor of Hairless (Su(H)), the Drosophila CSL, residues 98-523; Wild-type parent of the NBM mutant in the ITC experiment; also called Suppressor of Hairless; CSL; source: bacteria, purified (glutathione-Sepharose, cation exchange, size exclusion chromatography)
Kind of data set: ITC; MicroCal VP-ITC; typically 50 μM Su(H) in the syringe and 5 μM NICD in the cell; 25°C; 50 mM sodium phosphate pH 6.5, 150 mM NaCl; one-site binding model. Conditions: both partners purified.

T1 sequence (P28159 98-523): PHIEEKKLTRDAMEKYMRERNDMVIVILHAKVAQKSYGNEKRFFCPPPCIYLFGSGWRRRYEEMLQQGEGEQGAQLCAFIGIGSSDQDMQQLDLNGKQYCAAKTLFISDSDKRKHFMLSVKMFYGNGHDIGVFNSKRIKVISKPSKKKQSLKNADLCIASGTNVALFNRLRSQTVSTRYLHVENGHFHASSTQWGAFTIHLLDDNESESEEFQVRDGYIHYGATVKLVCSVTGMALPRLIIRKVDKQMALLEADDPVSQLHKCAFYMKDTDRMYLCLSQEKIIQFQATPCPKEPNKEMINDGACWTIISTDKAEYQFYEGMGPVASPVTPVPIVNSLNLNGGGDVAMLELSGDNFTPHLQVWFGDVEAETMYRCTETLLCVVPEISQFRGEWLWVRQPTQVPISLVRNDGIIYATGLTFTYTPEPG

“ITC DNA (Su(H) binding DNA, sequence not given)” returned a Kd in data set [1] of 0.46 µM.

B1: Recombinant NICD (1762-2142) (domain or fragment, Drosophila melanogaster, UniProt P07207 1762-2142, looked up)
chain: MVLSTQRKRAHGVTWFPEGFRAPAAVMSRRRRDPHGQEMRNLNKQVAMQSQGVGQPGAHWSDDESDMPLPKRQRSDPVSGVGLGNNGGYASDHTMVSEYEEADQRVWSQAHLDVVDVRAIMTPPAHQDGGKHDVDARGPCGLTPLMIAAVRGGGLDTGEDIENNEDSTAQVISDLLAQGAELNATMDKTGETSLHLAARFARADAAKRLLDAGADANCQDNTGRTPLHAAVAADAMGVFQILLRNRATNLNARMHDGTTPLILAARLAIEGMVEDLITADADINAADNSGKTALHWAAAVNNTEAVNILLMHHANRDAQDDKDETPLFLAAREGSYEACKALLDNFANREITDHMDRLPRDVASERLHHDIVRLLDEHVPR
notes: Notch intracellular domain (NICD), Drosophila Notch, residues 1762-2142; also called Notch intracellular domain; source: bacteria, purified (glutathione-Sepharose, cation exchange, size exclusion chromatography)
With B1, the binding result in data set [2] is “binds”.

What is called Kd is the concentration at which binding is half-saturated. Lower therefore signals a tighter complex.
